Data taken from patent publication US20220175781A1, “CD40L COMPOSITIONS AND METHODS FOR TUNABLE REGULATION” (Obsidian Therapeutics, Inc., priority 2019, published 2022).
Where “and” joins values, the source holds several entries; their conditions need not be identical. Identical values can stand only once.

Experiments:
[1] = system: T cells (CD4 and CD8 positive); test: CD40L MFI in vitro in CD4 and CD8 positive T cells, 10 μM TMP; type: cell-based; settings: constitutive, ligand not given
Method: T cells were transduced with OT-001662 and then treated with 10 μM TMP on day 4. CD40L expression was analyzed by FACS both in the CD4 and CD8 positive T cell populations.

[2] = system: Monocyte derived dendritic cells (mDC); test: Cytokine production in mDC-T cell co-culture (MSD); type: cell-based; settings: mDC-T cell co-culture 2 days
Source text: In order to engage dendritic cells in an immune response, dendritic cells must be converted to a functional state by an antigen-specific CD4+ helper T cell. Activation of the dendritic cells may be followed by the activation of CD8+ T cells by the dendritic cells, a process referred to as dendritic cell licensing. Engagement of the CD40L expressed on the CD4+ cells with the CD40 on the dendritic cells can result in (i) dendritic cell stimulation-measured by expression of co-stimulatory and MHC molecules (ii) proinflammatory cytokine release (e.g. IL12, TNFα and INFγ) (iii) epitope spreading. To measure the effect of CD40L expression that is tuned by the biocircuits of the present disclosure, CD4+ T cells or Jurkat cells expressing any of the CD40L constructs described herein were co-cultured with dendritic cells.
Dendritic cell function in response to co-culture with T cells expressing CD40L was evaluated in the presence of ligand or corresponding vehicle control. Monocyte derived dendritic cells (mDC) (CD14+) were isolated from fresh blood and cultured for 5 days with IL-4 (7.5 ng/mL) and GM-CSF (20 ng/mL). The mDCs were frozen down after the 5 day culture. T cells were transduced with OT-001662 and expanded for 9 days before being frozen down. mDCs and T cells were thawed and co-cultured 1:10 DC: T cell ratio (i.e. 5×10^4 DCs: 5×10^5 T cells). mDC and T cells were co-cultured for 2 days before cells were collected for flow cytometry and supernatants were collected for cytokine analysis. For evaluation of regulated constructs, ligand (various doses of TMP) was added at the time initiating the co-culture and was kept in the co-culture for 2 days. Cytokines were analyzed by MSD after a single freeze thaw cycle. All cells were cultured in complete RPMI with 10% FBS during the course of the experiment. SR indicates stabilization ratio.

HEK293T cells = test: Surface expression of CD40L trimerization mutants, transfected HEK293T cells (FACS); type: cell-based, human; settings: transiently transfected HEK293T cells
Method: Mutations were engineered within CD40L payload to reduce the binding affinity of CD40L payload for the CD40L endogenously expressed by cells. Constructs OT-002078, OT-002079, OT-002080, OT-002081, OT-002082 were generated with the CD40L trimerization mutants. HEK293T cells were transiently transfected with the constructs and CD40L expression was measured by FACS.

hCD45+ cells = hCD45+ cells in blood by FACS 14 days after T-cell infusion; type: in vivo, mice; settings: cell number not given
Method: (§1) Increased expression of CD40L on CD19 positive CART cells may increase the efficacy of CAR+ T cells in vivo. To test this, 8-week old mice were injected with Nalm6-luc (1 million per mouse). On day 6, Nalm6 tumor burden was measured and mice were grouped to ensure that all groups had similar tumor sizes. Body weight and Bioluminescence Intensity (BLI) were measured twice a week. Blood and plasma were also collected for cytokine analysis, CD40L and IL12.
Human cells were analyzed by FACS (hCD45+) from the blood 14 days after T-cell infusion, which equals 21 days after tumor implant. The results are shown in Table 22 where M indicates million.

T cells (CD4+ and CD8+) = test: Regulation of CD40L in T cells by different drug responsive domains; type: cell-based; settings: Ligand N/A
T cells = test: % CD40L positive cells in vivo, transduced T cells in NSG mice dosed with TMP; set-up: species or system NSG female mice; settings: constitutive construct
Method: Based on the in vitro data, regulatability of CD40L constructs in vivo was tested. 10-week old NSG female mice were injected with T cells transduced with one of the following constructs empty vector, OT-001661, and OT-001662 (day 0). On day 1, mice were pre-bled prior to dose with ligand. On day 2, mice were dosed every 4 hours with TMP at 500 mg/kg body weight of the mouse or vehicle control. Two hours after every dose, blood was collected from the mice to measure CD40L levels. On day 3, i.e. 24 hours after the first dose, mice were terminally bled for analysis. The values in bold represent the average values for each bleed.

Nalm6-luc = Nalm6-luc tumor model, Bioluminescence Intensity (BLI); type: in vivo, mice; settings: CD40L only T cells, no CAR+ number
Method: as §1

B1: OT-001661: constitutively expressed full length CD40L construct (protein)
chain: MHMIETYNQTSPRSAATGLPISMKIFMYLLTVFLITQMIGSALFAVYLHRRLDKIEDERNLHEDFVFMKTIQRCNTGERSLSLLNCEEIKSQFEGFVKDIMLNKEETKKENSFEMQKGDQNPQIAAHVISEASSKTTSVLQWAEKGYYTMSNNLVTLENGKQLTVKRQGLYYIYAQVTFCSNREASSQAPFIASLCLKSPGRFERILLRAANTHSSAKPCGQQSIHLGGVFELQPGASVFVNVTDPSQVSHGTGFTSFGLLKL
- CD40L MFI in vitro ([1]; CD4+): 24489
- CD40L MFI in vitro ([1]; CD8+): 14352
- Cytokine Production IFNg ([2]; DMSO): 12973 pg/mL
- Cytokine Production IL12 ([2]; DMSO): 58.935 pg/mL
- Cytokine Production TNFa ([2]; DMSO): 456.3242 pg/mL
- Cytokine Production IFNg ([2]; TMP): 10939.9 pg/mL
- Cytokine Production IL12 ([2]; TMP): 86.229 pg/mL
- Cytokine Production TNFa ([2]; TMP): 440.0804 pg/mL
- % CD40L positive (HEK293T cells): 43.3%
- Percentage hCD45+ cells, Average (hCD45+ cells): 0.002%
- Percentage hCD45+ cells, Individual values (hCD45+ cells): 0.00249% and 0.00331% and 0.00198% and 0%
- CD40L positive (T cells (CD4+ and CD8+); All Cells): 98%
- MFI (T cells (CD4+ and CD8+); All Cells): 20451
- CD40L positive (T cells (CD4+ and CD8+); CD4+): 98.7%
- MFI (T cells (CD4+ and CD8+); CD4+): 24489
- CD40L positive (T cells (CD4+ and CD8+); CD8+): 97.8%
- MFI (T cells (CD4+ and CD8+); CD8+): 14352
- % CD40L positive cells in vivo (T cells; 0 hours, average): 90.1%
- % CD40L positive cells in vivo (T cells; 0 hours, individual values): 80.9% and 87.1% and 84.4% and 107.8%
- % CD40L positive cells in vivo (T cells; 2 hours, average): 62.3%
- % CD40L positive cells in vivo (T cells; 2 hours, individual values): 85.6% and 67.4% and 33.3% and 62.7%
- % CD40L positive cells in vivo (T cells; 24 hours, average): 55.8%
- % CD40L positive cells in vivo (T cells; 24 hours, individual values): 53.5% and 66.7% and 61.0% and 41.9%
- Average BLI values (Nalm6-luc; Day 6 (before T cell injection on day 7)): 2.04E+06
- Average BLI values (Nalm6-luc; Day 13): 2.69E+08
- Average BLI values (Nalm6-luc; Day 20): 2.52E+09
- Average BLI values (Nalm6-luc; Day 25): 5.99E+09
- Average BLI values (Nalm6-luc; Day 28): 1.04E+10
